# Key:
# [1] = target: SF1 (steroidogenic factor 1) (UniProt Q04752 1-461); experiment: two-hybrid
# [2] = target: T1, hormone-binding domain (HBD) of ERR1 (UniProt P11474 1-423); experiment: two-hybrid
# T1 sequence (looked up): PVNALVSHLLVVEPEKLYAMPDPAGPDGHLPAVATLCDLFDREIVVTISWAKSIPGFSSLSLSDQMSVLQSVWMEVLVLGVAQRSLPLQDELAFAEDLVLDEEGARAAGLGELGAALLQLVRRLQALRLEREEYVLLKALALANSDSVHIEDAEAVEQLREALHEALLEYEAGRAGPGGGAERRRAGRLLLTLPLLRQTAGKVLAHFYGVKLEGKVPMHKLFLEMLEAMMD
# Sequence of SF1 (steroidogenic factor 1) (Q04752 whole entry, the tested form may be a part): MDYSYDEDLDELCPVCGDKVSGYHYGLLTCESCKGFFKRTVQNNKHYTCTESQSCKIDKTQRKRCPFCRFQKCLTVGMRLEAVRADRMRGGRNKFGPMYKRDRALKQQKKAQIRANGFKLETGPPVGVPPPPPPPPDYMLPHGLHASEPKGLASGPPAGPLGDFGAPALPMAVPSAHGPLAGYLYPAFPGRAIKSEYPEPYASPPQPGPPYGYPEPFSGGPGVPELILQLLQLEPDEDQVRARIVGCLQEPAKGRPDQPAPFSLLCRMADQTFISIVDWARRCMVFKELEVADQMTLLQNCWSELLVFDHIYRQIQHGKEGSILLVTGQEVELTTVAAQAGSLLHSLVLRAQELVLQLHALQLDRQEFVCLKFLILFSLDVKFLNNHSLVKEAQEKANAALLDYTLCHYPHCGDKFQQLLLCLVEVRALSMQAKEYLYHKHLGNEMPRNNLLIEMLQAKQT
binder,measurement,setting,value
PNRC1d (natural protein) not shown,fold increase of affinity compared to fl PNRC (two-hybrid β-galactosidase),[1],> 10 fold
same,fold increase of affinity compared to fl PNRC (two-hybrid β-galactosidase),[2],> 10 fold

# Reference: paper PMC3644619 (Gene, 2008)
